# Results taken from PMC10057511.
# Molecular target: AP2α/σ2 hemicomplex, both subunits fused to the Venus C-terminal fragment and V5 (UniProt O94973)
# Experiment: split reporter (BiFC, NanoBiT); HEK293 cells co-transfected with AP2α-Venus-C-V5, AP2σ2-Venus-C-V5 and Nef-HA-Venus-N (400 ng each); fixed the next day in 2% PFA; Venus fluorescence (FITC channel) read by flow cytometry as MFI
# Chain of UniProt O94973 (O94973 whole entry, chain 1 of 2, the tested form may be a part): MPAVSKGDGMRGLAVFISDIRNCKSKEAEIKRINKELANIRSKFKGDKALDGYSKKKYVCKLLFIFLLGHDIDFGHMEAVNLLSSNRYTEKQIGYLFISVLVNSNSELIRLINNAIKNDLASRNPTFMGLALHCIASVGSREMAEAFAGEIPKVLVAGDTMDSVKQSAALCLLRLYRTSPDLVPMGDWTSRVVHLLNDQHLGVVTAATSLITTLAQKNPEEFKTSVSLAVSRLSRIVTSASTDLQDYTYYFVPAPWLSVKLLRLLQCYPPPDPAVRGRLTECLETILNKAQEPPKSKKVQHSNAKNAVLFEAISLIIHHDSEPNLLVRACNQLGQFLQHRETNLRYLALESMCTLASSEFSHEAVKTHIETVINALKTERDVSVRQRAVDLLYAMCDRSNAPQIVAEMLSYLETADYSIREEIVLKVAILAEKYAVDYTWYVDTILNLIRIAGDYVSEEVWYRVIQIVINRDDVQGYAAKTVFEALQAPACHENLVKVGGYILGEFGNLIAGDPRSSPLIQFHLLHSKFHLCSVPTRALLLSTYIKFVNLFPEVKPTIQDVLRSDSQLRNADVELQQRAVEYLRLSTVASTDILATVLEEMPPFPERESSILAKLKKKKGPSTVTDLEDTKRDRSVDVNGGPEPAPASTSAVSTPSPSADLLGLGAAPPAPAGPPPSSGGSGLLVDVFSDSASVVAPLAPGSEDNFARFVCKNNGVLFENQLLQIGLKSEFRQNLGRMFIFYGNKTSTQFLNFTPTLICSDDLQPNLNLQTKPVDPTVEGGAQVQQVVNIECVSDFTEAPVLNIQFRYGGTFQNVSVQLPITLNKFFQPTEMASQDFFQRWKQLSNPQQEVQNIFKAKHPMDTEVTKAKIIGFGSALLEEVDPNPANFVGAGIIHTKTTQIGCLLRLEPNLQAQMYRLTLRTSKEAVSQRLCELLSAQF
# Chain of UniProt O94973 (P53680 whole entry, chain 2 of 2, further chain, the tested form may be a part): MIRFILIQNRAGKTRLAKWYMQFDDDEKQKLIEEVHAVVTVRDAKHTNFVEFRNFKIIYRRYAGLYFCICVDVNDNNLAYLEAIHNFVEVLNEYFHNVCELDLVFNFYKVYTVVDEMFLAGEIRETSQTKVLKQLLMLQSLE
substance,measurement,value
Nef protein from the LAI isolate lacking the leucine-based sorting motif (LL/AA) fused to HA and the N-terminal fragment of Venus (from UniProt P03406 1-206) (natural protein),decrease of BiFC fluorescence against Nef^LAI,50%
